Source: patent US20060014678A1 (IMPERIAL INNOVATIONS, published 2006)
No end group written: not given here.

Biological target: T1, NPY Y2 receptor
T1 chain: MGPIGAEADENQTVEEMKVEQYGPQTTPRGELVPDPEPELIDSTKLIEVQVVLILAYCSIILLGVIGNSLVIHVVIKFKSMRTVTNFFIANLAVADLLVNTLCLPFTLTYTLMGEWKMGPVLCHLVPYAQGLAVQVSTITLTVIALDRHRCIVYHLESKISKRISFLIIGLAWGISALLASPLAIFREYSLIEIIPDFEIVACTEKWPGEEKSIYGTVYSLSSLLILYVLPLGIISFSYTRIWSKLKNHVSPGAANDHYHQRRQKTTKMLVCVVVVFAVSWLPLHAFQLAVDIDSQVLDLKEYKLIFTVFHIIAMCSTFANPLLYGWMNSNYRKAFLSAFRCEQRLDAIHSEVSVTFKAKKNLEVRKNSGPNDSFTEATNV
Experiment: receptor-binding study on a cell line expressing the NPY Y2 receptor

Ac-LRHYLNLLTRQRY (ends and bridges not checked, also called Y2A; Y2R selective agonist) [N-acetyl (Leu^28, Leu^31) NPY (24-36)]
IC50: 1.3 nM
